From patent EP4613763A1 (Chuang, Woei-jer, dated 2025)
Substitutions are numbered along the chain they refer to.

B1: protein C7 (designed binder)
chain: VSDVPRDLEVVAATPTSLLISWRHPHFPTRYYRITYGETGGNSPVQEFTVPLQPPTATISGLKPGVDYTITVYAVTDGRNGRLLSIPISINYRT
B2: C7-SL1-LL2-His (designed binder, not shown: small tags and cut ends)
chain: B1 chain with L8C, S17C, S60C, S89C
modifications: Designed disulfide bonds Cys8-Cys89 and Cys17-Cys60.
notes: His-tagged C7 variant with two introduced disulfide bonds
B3: C7-LL4-His (designed binder, not shown: small tags and cut ends)
chain: B1 chain with K63C, V66C
modifications: Designed disulfide bond between Cys63 and Cys66.
notes: His-tagged C7 variant with one introduced disulfide bond
B4: C7-LL3-His (designed binder, not shown: small tags and cut ends)
chain: B1 chain with T39C, D67C
modifications: Designed disulfide bond between Cys39 and Cys67.
notes: as for B3
B5: C7-SL1-LL3-His (designed binder, not shown: small tags and cut ends)
chain: B1 chain with L8C, T39C, D67C, S89C
modifications: Designed disulfide bonds Cys8-Cys89 and Cys39-Cys67.
notes: as for B2
B6: C7-SL3-His (designed binder)
chain: B1 chain with G37C, V45C
modifications: Designed intramolecular disulfide bond Cys37-Cys45 (printed as G38/V46 in the Met-included numbering).
notes: His-tagged C7 variant with one introduced disulfide bond; not shown: N-terminal Met and C-terminal His tag of the expressed construct
B7: C7-SL4-His (designed binder, not shown: small tags and cut ends)
chain: B1 chain with D67C, N91C
modifications: Designed disulfide bond between Cys67 and Cys91.
notes: as for B3
B8: C7-SL1-His (designed binder, not shown: small tags and cut ends)
chain: B1 chain with L8C, S89C
modifications: Designed disulfide bond between Cys8 and Cys89.
notes: as for B3
B9: C7-LL2-His (designed binder, not shown: small tags and cut ends)
chain: B1 chain with S17C, S60C
modifications: Designed disulfide bond between Cys17 and Cys60.
notes: as for B3
B10: C7-SL2-His (designed binder)
chain: B1 chain with T35C, V45C
modifications: Designed intramolecular disulfide bond Cys35-Cys45 (printed as T36/V46 in the Met-included numbering).
notes: as for B6
B11: C7-SS1-His (designed binder, not shown: small tags and cut ends)
chain: B1 chain with L19C, T58C
modifications: Designed disulfide bond between Cys19 and Cys58.
notes: as for B3

target: T1, vascular endothelial growth factor receptor 2 (UniProt P35968 20-764, limits assumed); assay: ELISA, binding affinity to VEGFR2
T1 construct: also called VEGFR2; kinase insert domain receptor
T1 sequence (P35968 20-764 limits assumed): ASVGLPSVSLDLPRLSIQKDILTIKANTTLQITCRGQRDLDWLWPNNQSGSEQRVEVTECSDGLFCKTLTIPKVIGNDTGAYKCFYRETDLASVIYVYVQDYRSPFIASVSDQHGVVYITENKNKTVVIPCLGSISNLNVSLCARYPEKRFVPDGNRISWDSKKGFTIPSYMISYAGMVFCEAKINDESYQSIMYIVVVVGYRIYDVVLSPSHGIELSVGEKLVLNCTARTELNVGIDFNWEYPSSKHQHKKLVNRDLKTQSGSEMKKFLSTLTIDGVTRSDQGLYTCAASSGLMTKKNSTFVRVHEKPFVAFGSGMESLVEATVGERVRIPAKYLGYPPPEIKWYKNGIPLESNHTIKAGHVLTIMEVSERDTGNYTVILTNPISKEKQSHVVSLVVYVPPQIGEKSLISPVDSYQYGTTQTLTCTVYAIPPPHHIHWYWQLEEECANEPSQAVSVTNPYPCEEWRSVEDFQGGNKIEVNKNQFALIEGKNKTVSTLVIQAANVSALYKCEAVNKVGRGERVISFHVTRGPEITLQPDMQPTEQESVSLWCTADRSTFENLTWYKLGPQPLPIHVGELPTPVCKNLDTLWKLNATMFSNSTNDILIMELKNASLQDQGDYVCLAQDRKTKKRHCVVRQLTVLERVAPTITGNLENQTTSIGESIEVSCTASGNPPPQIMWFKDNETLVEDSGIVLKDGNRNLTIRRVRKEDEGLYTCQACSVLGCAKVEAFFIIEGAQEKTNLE

Row | Binder | IC50 [nM]
1 | B1 | 16.8
2 | B2 | 12.8
3 | B3 | 16.6
4 | B4 | 9.8
5 | B5 | 19.2
6 | B6 | 21.3
7 | B7 | 18.5
8 | B8 | 17.6
9 | B9 | 18.9
10 | B10 | 17.1
11 | B11 | 17.5
